This experiment has as its target wild-type HCMV gB expressed in HEK293T cells (human cytomegalovirus (strain not stated)) (UniProt P06473). Kind of experiment: far-Western, overlay or dot blot.

The text below walks through data of paper PMC6049025.

UniProt P06473, sequence (P06473 32-906): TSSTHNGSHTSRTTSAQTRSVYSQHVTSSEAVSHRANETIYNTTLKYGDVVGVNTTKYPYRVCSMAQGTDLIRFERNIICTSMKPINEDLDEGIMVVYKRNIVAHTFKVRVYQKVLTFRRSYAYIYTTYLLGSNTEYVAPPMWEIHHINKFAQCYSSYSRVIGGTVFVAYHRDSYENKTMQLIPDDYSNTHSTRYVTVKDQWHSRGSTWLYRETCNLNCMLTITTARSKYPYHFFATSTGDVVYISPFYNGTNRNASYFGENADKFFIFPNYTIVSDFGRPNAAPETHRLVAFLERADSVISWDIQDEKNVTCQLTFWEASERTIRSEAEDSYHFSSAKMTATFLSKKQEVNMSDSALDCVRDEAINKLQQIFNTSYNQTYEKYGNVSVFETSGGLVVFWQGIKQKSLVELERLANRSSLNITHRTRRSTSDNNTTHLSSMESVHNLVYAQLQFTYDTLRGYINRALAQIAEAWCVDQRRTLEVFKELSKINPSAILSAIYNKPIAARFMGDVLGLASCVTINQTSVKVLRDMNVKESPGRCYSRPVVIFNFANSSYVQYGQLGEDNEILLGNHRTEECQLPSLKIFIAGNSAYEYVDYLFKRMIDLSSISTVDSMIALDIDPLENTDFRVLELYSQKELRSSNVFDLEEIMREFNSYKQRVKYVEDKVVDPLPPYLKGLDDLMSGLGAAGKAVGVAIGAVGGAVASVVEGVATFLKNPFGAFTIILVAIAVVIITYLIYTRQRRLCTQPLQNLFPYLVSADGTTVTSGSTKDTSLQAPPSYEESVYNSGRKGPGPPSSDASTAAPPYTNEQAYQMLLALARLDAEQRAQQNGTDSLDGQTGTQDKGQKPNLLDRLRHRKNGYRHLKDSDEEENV
DC-SIGN-Fc, sequence (Q9NNX6 59-404): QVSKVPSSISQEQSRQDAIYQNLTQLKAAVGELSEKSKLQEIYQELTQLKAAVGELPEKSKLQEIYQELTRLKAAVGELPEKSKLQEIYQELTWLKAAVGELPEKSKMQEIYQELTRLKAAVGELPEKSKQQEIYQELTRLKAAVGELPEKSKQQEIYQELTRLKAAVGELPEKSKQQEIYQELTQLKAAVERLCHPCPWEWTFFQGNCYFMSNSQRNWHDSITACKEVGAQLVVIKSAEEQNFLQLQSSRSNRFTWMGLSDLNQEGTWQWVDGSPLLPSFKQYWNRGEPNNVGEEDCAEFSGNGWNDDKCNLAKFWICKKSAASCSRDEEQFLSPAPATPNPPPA

For the substance “DC-SIGN-Fc (from UniProt Q9NNX6 59-404) (Fc fusion)”, the DC-SIGN-Fc binding normalized on gB expression (ratio) was determined as 1.15.
